Residue numbers refer to the chain shown, from its start.
B1: BK-D-07 (bispecific antibody, human IgG1, kappa)
heavy: QVQLVQSGAEVKKPGASVKVSCKASGYTFTNYYMKWVKQAPGQSLEWIGDLNPNNGDTFYNQKFKGKATLTVDKSASTAYMELNSLRSEDTAVYYCARTGRYEENAMDYWGQGTLVTVSSASTKGPSVFPLAPSSKSTSGGTAALGCLVKDYFPEPVTVSWNSGALTSGVHTFPAVLQSSGLYSLSSVVTVPSSSLGTQTYICNVNHKPSNTKVDKRVEPKSCDKTHTCPPCPAPEFEGGPSVFLFPPKPKDTLMISRTPEVTCVVVDVSHEDPEVKFNWYVDGVEVHNAKTKPREEQYNSTYRVVSVLTVLHQDWLNGKEYKCKVSNKALPASIEKTISKAKGQPREPQVYTLPPSREEMTKNQVSLTCLVKGFYPSDIAVEWESNGQPENNYKTTPPVLDSDGSFFLYSKLTVDKSRWQQGNVFSCSVMHEALHNHYTQKSLSLSPGKGGGGSGGGGSGGGGSQAVVTQEPSLTVSPGGTVTLTCRSSTGAVTTSNYANWVQQKPGQAPRGLIGGTNKRAPWTPARFSGSLLGGKAALTLSGAQPEDEAEYYCALWYSNLWVFGGGTKLTVLGGGGSGGGGSGGGGSEVQLVESGGGLVQPGGSLRLSCAASGFTFNTYAMNWVRQAPGKGLEWVARIRSKYNNYATYYADSVKDRFTISRDDSKNILYLQMNSLKTEDTAMYYCVRHGNFGNSYVSWFAYWGQGTLVTVSA
light: DIVLTQSPASLAVSPGQRATITCRASESVDSYGKSFMHWYQQKPGQPPKLLIYRASNLESGVPARFSGSGSRTDFTLTINPVEANDTANYYCQQNNEDPWTFGQGTKLEIKRTVAAPSVFIFPPSDEQLKSGTASVVCLLNNFYPREAKVQWKVDNALQSGNSQESVTEQDSKDSTYSLSSTLTLSKADYEKHKVYACEVTHQGLSSPVTKSFNRGEC
B2: BK-D-11 (bispecific antibody, human IgG1, kappa)
heavy: B1 heavy with S44R, I48M, K67R, A68V, L70I, N84S, I669S, M684V
light: B1 light
B3: BK-D-12 (bispecific antibody, human IgG1, kappa)
heavy: B1 heavy with S44R, I48M, K67R, A68V, L70I, N84S
light: B1 light with I2L, L4M, Q42L
B4: BK-D-10 (bispecific antibody, human IgG1, kappa)
heavy: B1 heavy with I669S, M684V
light: B1 light with I2L, L4M, Q42L
B5: BK-B-110-hu2 (bispecific antibody)
chain: ELVMTQSPASLAVSLGQRATISCRASESVDSYGKSFMHWYQLKPGQPPKLLIYRASNLESGVPARFSGSGSRTDFTLTIDPVEADDAATYYCQQNNEDPWTFGGGTKLEIKGSTSGSGKPGSGEGSTKGEVQLEQSGPELVKPGASVKMSCKASGYTFTNYYMKWVKQSHGKSLEWIGDLNPNNGDTFYNQKFKGKATLTVDKSSNTAYMQLNSLTSEDSAVYYCARTGRYEENAMDYWGQGTSVTVSSPCPAPEFEGGPSVFLFPPKPKDTLMISRTPEVTCVVVDVSHEDPEVKFNWYVDGVEVHNAKTKPREEQYNSTYRVVSVLTVLHQDWLNGKEYKCKVSNKALPASIEKTISKAKGQPREPQVYTLPPSREEMTKNQVSLTCLVKGFYPSDIAVEWESNGQPENNYKTTPPVLDSDGSFFLYSKLTVDKSRWQQGNVFSCSVMHEALHNHYTQKSLSLSPGKGGGGSGGGGSGGGGSQAVVTQEPSLTVSPGGTVTLTCRSSTGAVTTSNYANWVQQKPGQAPRTLIGGTNKRAPWVPARFSGSLLGDKAALTLSGAQPEDEAEYYCALWYSNLWVFGGGTKLTVLGGGGSGGGGSGGGGSEVQLVESGGGLVQPGGSLRLSCAASGFTFNTYAMNWVRQAPGKGLEWVARIRSKYNNYATYYADSVKDRFTISRDDSKNILYLQMNSLKTEDTAVYYCVRHGNFGNSYVSWFAYWGQGTLVTVSA
B6: BK-B-110-hu4 (bispecific antibody)
chain: B5 chain with V544T, D555G, V703M
B7: BK-B-110-hu3 (bispecific antibody)
chain: B5 chain with Q524E
B8: BK-B-110-hu1 (bispecific antibody)
chain: B5 chain with V544T, D555G
B9: BK-B-110-hu5 (bispecific antibody)
chain: B5 chain with V703M
B10: BK-B-110-hu6 (bispecific antibody)
chain: B5 chain with Q524E, V703M
B11: BK-B-110 (bispecific antibody)
chain: ELVMTQSPASLAVSLGQRATISCRASESVDSYGKSFMHWYQLKPGQPPKLLIYRASNLESGVPARFSGSGSRTDFTLTIDPVEADDAATYYCQQNNEDPWTFGGGTKLEIKGSTSGSGKPGSGEGSTKGEVQLEQSGPELVKPGASVKMSCKASGYTFTNYYMKWVKQSHGKSLEWIGDLNPNNGDTFYNQKFKGKATLTVDKSSNTAYMQLNSLTSEDSAVYYCARTGRYEENAMDYWGQGTSVTVSSPCPAPEFEGGPSVFLFPPKPKDTLMISRTPEVTCVVVDVSHEDPEVKFNWYVDGVEVHNAKTKPREEQYNSTYRVVSVLTVLHQDWLNGKEYKCKVSNKALPASIEKTISKAKGQPREPQVYTLPPSREEMTKNQVSLTCLVKGFYPSDIAVEWESNGQPENNYKTTPPVLDSDGSFFLYSKLTVDKSRWQQGNVFSCSVMHEALHNHYTQKSLSLSPGKGGGGSGGGGSGGGGSQAVVTQESALTTSPGETVTLTCRSSTGAVTTSNYANWVQEKPDHLFTGLIGGTNKRAPGVPARFSGSLIGDKAALTITGAQTEDEAIYFCALWYSNLWVFGGGTKLTVLGGGGSGGGGSGGGGSEVKLLESGGGLVQPKGSLKLSCAASGFTFNTYAMNWVRQAPGKGLEWVARIRSKYNNYATYYADSVKDRFTISRDDSQSILYLQMNNLKTEDTAMYYCVRHGNFGNSYVSWFAYWGQGTLVTVSA
B12: TT3 Ab-2 (antibody, human IgG1, kappa, V domains shown)
VH: QVQLVQSGAEVKKPGASVKVSCKASGYTFTNYYMKWVKQAPGQSLEWIGDLNPNNGDTFYNQKFKGRVTITVDKSASTAYMELNSLRSEDTAVYYCARTGRYEENAMDYWGQGTLVTVSS
VL: DLVMTQSPASLAVSPGQRATITCRASESVDSYGKSFMHWYQQKPGQPPKLLIYRASNLESGVPARFSGSGSRTDFTLTINPVEANDTANYYCQQNNEDPWTFGQGTKLEIKR
notes: also called humanized anti-TT3 monoclonal antibody
B13: TT3 Ab-1 (antibody, human IgG1, kappa, V domains shown)
VH: B12 VH with S44R, I48M, N84S
VL: B12 VL with L2I, M4L
notes: as for B12
B14: TT3 Ab-3 (antibody, human IgG1, kappa)
heavy: not shown
light: B1 light with I2L, L4M, Q42L
notes: as for B12
B15: Ab-TT3 (antibody, V domains shown)
VH: EVQLEQSGPELVKPGASVKMSCKASGYTFTNYYMKWVKQSHGKSLEWIGDLNPNNGDTFYNQKFKGKATLTVDKSSNTAYMQLNSLTSEDSAVYYCARTGRYEENAMDYWGQGTSVTVSS
VL: ELVMTQSPASLAVSLGQRATISCRASESVDSYGKSFMHWYQLKPGQPPKLLIYRASNLESGVPARFSGSGSRTDFTLTIDPVEADDAATYYCQQNNEDPWTFGGGTKLEIK
notes: also called anti-Strep tag II antibody before humanization

These binders were tested against TT3 labeling polypeptide on cells (assay: flow cytometry on HCT116-TT3 cells).
Sequence of TT3 labeling polypeptide on cells (P01732 other isoform, or with tags, fused parts or gaps limits assumed): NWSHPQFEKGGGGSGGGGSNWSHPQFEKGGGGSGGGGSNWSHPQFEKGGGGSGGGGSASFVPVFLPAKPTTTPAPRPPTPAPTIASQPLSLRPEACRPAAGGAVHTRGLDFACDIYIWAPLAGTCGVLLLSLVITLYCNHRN

Q: How did the EC50 turn out when B1 was run?
A: 0.127 nM

Q: B2 was tested. Which EC50 did it give?
A: 0.336 nM

Q: How did the EC50 turn out when B3 was run?
A: 0.523 nM

Q: B4 was tested. Which EC50 did it give?
A: 0.248 nM

The binders below were run against TT3 labeling polypeptide on cells (assay: flow cytometry (as for Table 1)).

Q: Does B5 bind?
A: binds

Q: Does B6 bind?
A: binds

Q: Does B7 bind?
A: binds

Q: Does B8 bind?
A: binds

Q: Does B9 bind?
A: binds

Q: Does B10 bind?
A: binds

Q: Does B11 bind?
A: binds

The binders below were run against TT3 labeling polypeptide on cells (assay: flow cytometry on SK-HEP-1-TT3 cells).

Q: With B12 as the binder, how does the EC50 read?
A: 1.53 nM

Q: How did the EC50 turn out when B13 was run?
A: 0.546 nM

Q: How did the EC50 turn out when B14 was run?
A: 0.738 nM

What follows are binders tested against TT3 labeling polypeptide on cells (assay: flow cytometry on MC38-TT3 cells).

Q: Which EC50 does the source give for B12 here?
A: 2.33 nM

Q: B13 was tested. Which EC50 did it give?
A: 1.2 nM

Q: For B14, which EC50 is on record?
A: 0.588 nM

These binders were tested against T1, CD3 on Jurkat cells and on human T cells (human, UniProt P07766 23-207) (assay: flow cytometry on Jurkat cells).
T1 construct: whole, on cells; also called CD3 end; CD3 antigen
T1 sequence (P07766 23-207): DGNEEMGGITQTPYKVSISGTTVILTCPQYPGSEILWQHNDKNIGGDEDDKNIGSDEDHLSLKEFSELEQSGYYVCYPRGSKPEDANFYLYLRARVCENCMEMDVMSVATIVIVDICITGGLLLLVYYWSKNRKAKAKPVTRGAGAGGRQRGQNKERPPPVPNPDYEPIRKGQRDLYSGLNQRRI
Protocol: Jurkat cells were plated, washed with a FACS buffer, and centrifuged at 1200 rpm for 3-5 min. Then diluted antibodies with different concentrations were added at 100 L/well. The cells were incubated at 4° C. for 0.5 h, centrifuged at 1200 rpm for 3-5 min, and washed with a FACS buffer. Then a diluted goat anti-human IgG (FITC, Abcam/ab97224) antibody was added. The cells were incubated at 4° C. for 0.5 h, centrifuged at 1200 rpm for 3-5 min, washed with a FACS buffer, and resuspended in 50 μL of a FACs buffer, and assays were performed using a flow cytometer.

Q: With B1 as the binder, how does the EC50 read?
A: 49.4 nM

Q: For B2, which EC50 is on record?
A: 169 nM

Q: With B3 as the binder, how does the EC50 read?
A: 80.6 nM

Q: Which EC50 does the source give for B4 here?
A: 143 nM

Target: TT3 labeling polypeptide on cells
Assay: flow cytometry on HCT116-TT3 cells
Remark: another data set of the same source

Q: Which EC50 does the source give for B12 here?
A: 0.958 nM

Q: With B13 as the binder, how does the EC50 read?
A: 0.568 nM

Q: Which EC50 does the source give for B14 here?
A: 0.692 nM

What follows are binders tested against TT3 antigen (ELISA coating antigen) (assay: ELISA, plate-coated TT3 antigen).
Protocol: The activity of the prepared humanized antibodies was assessed by ELISA as follows: The TT3 antigen was diluted to 0.5 g/mL using a coating solution and added to a 96-well plate at 100 L/well, and the plate was incubated overnight at 4° C. The plate was washed with PBST. Then 200 μL of an antibody blocking solution was added to each well, and blocking was performed at 37° C. for 2 h. The plate was washed with PBST. Different antibodies (initial concentration: 100 nM; serially diluted in a 1:6 ratio) were added at 100 L/well, and the plate was incubated at 37° C. for 2 h. The plate was washed with PBST. An HRP-bound goat anti-human/mouse IgG antibody was added at 100 μL/well, and the plate was incubated at 37° C. for 1 h. The plate was washed with PBST, and TMB was added at 100 L/well. Color development was performed at 37° C. for 10-20 min, and 50 µL of 2 M sulfuric acid was added to each well to stop the reaction. OD readings were taken at a wavelength of 450 nm.

Q: For B12, which EC50 is on record?
A: 0.0105 nM

Q: For B13, which EC50 is on record?
A: 0.0104 nM

Q: For B14, which EC50 is on record?
A: 0.014 nM

Q: For B15, which EC50 is on record?
A: 0.0878 nM

Source: patent US20250304690A1 (HANGZHOU VIROMAB BIOTECH, published 2025)
